# Laboratory results taken from the domain aggregation screens of Martell et al. (2025).
# Experiment: soluble fraction after stress (log2 fold change); higher = more stays soluble; pooled small domains, quantitative proteomics
# Conditions: stress: 50 degC
# Method in brief: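 After stress at 50°C, the amount of each protein still soluble was measured. This was done on pooled custom libraries of small protein domains, using high-throughput quantitative proteomics. The figure given is a base-two log fold change and stands for aggregation propensity, with higher values meaning more protein stays in solution.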
row,Sequence,soluble fraction (log2)
1,HMFGELTPDTAKRFLLTAREQEMASLIAQGLTNKEIAFRLGISEATVRTHIYNLFQKVGVQSRIELLNVLH,-0.289
2,HMEQIPEEYKKIYSLITDIPININDIAKKSLLELREVSSKLTMLELDGKVVKLPGNMYIRGDL,0.0726
3,HMEPREEFTFADLRANGLNGTAAAAGRRAALGAALGIGYGNAKQFLRRLNHYGVTRSEWEAALADLDE,-0.419
4,HMDHWQSVNSALELLEVSRRTLYDYISRKKLQTKKEGKYRYVWIDDDVIEEIKTSKSAYIEINN,-2.19
5,HMVINTRHTGFVVDDLERFINFYLGLGLKLISRKVESGEYIDKLVGLKGTKLEWAKLSLPDNSMIEILKYH,-0.375
6,HMQVVDWSQVDKEDYLLATKRRAVSTGELKFLLLNNLTYDLTQTRFFKGMDASYYYEGYNLYQTGE,0.122
7,HMTNNDIIRRVRYLFNFSDKQVIELFKLANETVSIEHVSGWLKKEEDPTLIEISDRDLAVFLNGLII,0.237
8,HMQLDDDQKEELILKLIDSLDTTKKGAPLTELAREAAKSNIGESELEEITTSLLDKGLVYEPTIGKMKR,0.216
9,HMTNISDYILEEYYKNVYPNDLNTKRIVIPNKYEEYAGKYTYITIARMVTYEHDAKKALKVLHQQAT,-0.287
10,HMTGVEAIERYLASGVIPGVGPVLAKRLVERFGARTLEVIEDSPRRLTQVPGIGRQKARQIHQALKAQRE,-0.25
11,HMAPPPPEGYIHRWIRESVMGFDDKKNLSARIREGFELVRAEEYPDYEAPTVMDGKHAGVIANGGLLLARF,-0.148
12,HMTAAPEVRVEGLFKGAAVLKIDGQQVMLKKGRSHSSGVTLVDANAHRAIVEIDGQRHELALHMA,0.0499
13,HMQQDGSSSLGENMLNQELQARGVVPSEIPQEVWERVIQEAGKKSKREIYADIGLGRSLAAGFAQRLAA,0.261
14,HMKEIDVPNVVGASENAARKLLESYGFQVEVQWENGERVDNAVVKSYSPNGSAKSGSTVTIVLGT,0.062
15,HMNKFKVNERVRVIATGEIGIVKGREILPVEGSKRVNIEYLVKVGNGFSNWKAFSKKELEPVR,-1.18
16,HMRLSPTMVETLIAMLNRNAYPAYENNSRTFASLEERGLIQPDIEGNWSLTDTGHQTALKLLK,0.0915
17,HMYQPLYEQIKRMLTQSLIDGEWKAGEMIPSEMELAARFKVSQGTVRKAIDELVSENILMRRQGKGTFVH,-0.231
18,HMQTQVEVLVKYVLEDGTVYKEDKVSADIGAILDSGDLPMLSNDMKFIDDFLFYEVKESDNVIERKVAKLV,0.114
19,HMDTNAIIGLRIKNLRTEKKYTLKYLSENTGLSIGFLSQLERGMTSIAIDSLDKISKVLDVELSSFFT,-1.24
20,HMGQYSTTLDKIENSLFGFTYSNEAENTRINRIENKVYGKTSTSQTSTRIAKLKKDLSVDEMG,0.0362
21,HMTIPNGTVVNGTVLEAREAGAYLVRVAGQTLTAQANLPLLVGQHFRAVWDSSGDIPVLRLSDAEQALLGK,0.119
22,HMGPRKAGSEATRQKILDAAEILFAERGFHSVSVRDITTEAGVDVALINYHFGSKQLLFETVFMRR,-0.331
23,HMQNYLEVLRLHELGMGQRKIAQQVHTSRDTIRKIIAIAENQGLNYSNLIGKTDNELSKVFG,-0.307
24,HMAPDDTAVWSAFIGWFRTAPDGPNPLGAYAAKLGEEGLDAAEVGRRMTVIVRLFAEKPEGAEVFYDRTYA,-0.875
25,HMKKERITWDERLERFAKYITENESLPYPSSKEHAWFEENKALYDAGELESVRAQSFSFLLKILRRMNLI,-0.278

row,Sequence,soluble fraction (log2)
1,HMSDAGAIEPTIKEILASNPKAVEEYLAGNIKNINALIGQSMKALHGKADPQTVRNLLAKLLDEM,-0.219
2,HMKYTEEIFNILSRGGFISANSVSSTVKRYYDALEEDFTEYYDYYKGIGFYLEAGNGYYLFTR,-3.29
3,HMPGPAEMPGWITARAKKLGGQITPEAARALAAEMGSDTEQASREIEKLLTYVDYRRPVEEEDVALLTA,-0.0046
4,HMDSDELEAFRLITSVNGVGPKLGIAILSEFTAEKLTVFIASGDAKALTAASGVGIKLAQRIVLELKDKVG,-0.199
5,HMKVYIKDISDLSDKLKSLLIENDIDDSNKLFEVEDQVLLEIKGLGSKTIDKIKDIVTEYLKKNN,-0.218
6,HMLSEKELLELLNRAKSNYNGITKKGIEAIALKYQGYSNVEIANLYHVKANHISAWISRARSRLKADY,0.193
7,HMRGFTDFEHIEKEYLATIEKLNWPDGVTLPDKLEGEDTGTSFQVGYGDTRASNLWEYSWMK,-0.0186
8,HMRADRLISMLMLLQARGKITAEELAVELGVSQRTIYRDIEALSFAGVPVYAERGPGGGIGLLEPY,-1.7
9,HMPKSKTPDDAAEEFRTAFSALDMDGKVTVKDMAEYMGVIDKTVYARLKKMGDEFTLDKGVITKKT,-0.0532
10,HMPEFKDMLKFFRMREHLSQSELAEKLGISASTVSMYEVGRRQPDFETEEKIADFFNTDLNTLRG,-0.39
11,HMQSNDTAEIEAVVKEIMAANERVVNDYRSGNTKVVSFFVGQVMKATKGKANPKVVNEVLAKLLK,0.0929
12,HMQTTPAGHELLIRYFANGNIRERGMMKDGKRNGIWIFYDESGMEIRKTKYKMGKIISDYDLN,-1.07
13,HMADTSLDHLGVLVRHASDVDAWAEFFENRGVTLASQPRTHRDGARSFYVDDPDGNRVQVIYHPPI,-0.498
14,HMTYSEEEIERDLYVRGTLYQIGDLVENKIDGTSGEIVRRGPNYVQYSDGENFYKAFLHSIQEV,-0.106
15,HMGDEHYDTISAFIKSVRGSDPDAALYWLAKMILAGEDPRFILRRLIVLSGEDIGLADPQGI,-0.653
16,HMWSAREQVVNSLREAILTSELKAGERLVLSDLSARLGVSVTPIREALQSLEREGLVQLMPHQEAVVV,0.155
17,HMGEVISRSYPLLKTKAKPAEVSEALQKLIKAPATVTFDEKNEVFHINATRLQHTWAEGYFKGLHGK,0.0333
18,HMRLPVELTDREVEVLRLLAQAMSNGEIARELYIGEATVKTHVSNVLQKLGARDRVAAVVWAHRYGL,-1.59
19,HMKVVEKHIVPQIQNPIRLQEYASSIFKTITTRSGIKKAIKKQLILLNRKPANTGDWIKEGQLLELLAEE,-0.242
20,HMFSIDRNIRRLRKEAGLTQEELAQKLFVTRQTISLWELGKVHPDLETLQKLAEQFQVDLLQVLYGPE,-2.17
21,HMALPDSEKRQWLVDEVNERGLKLPDDVLEYLFARVGRSQAHLVDVIEKLDFESLAQSRKLTIPFVREVLK,-0.152
22,HMFVTFFHELKSAGVPVSLREYLTLMEAMDRDLASRRVEEFYYLARTALVKDERNLDKFDRVFGHVFKGL,-3.65
23,HMKEEVEILGGKATIYTNDYGVWQFRLWLTTDNKYVRKSLRTKVKDYAITEGEKLYIQIRSDIEKGIKYY,-1.13
24,HMSGSLLQTRQRLQALTDLGHYKGDLAAAWGPEAIEALKRAQAALGITVDGKWGPETEDAIQVALQAQT,0.0305
25,HMVANLPFNYKVYAKKGKLYVVISYKDSNGKYKKKWIRTGLDEGTKKKEVNTVADQIAAEYYSSMRLE,-1.54

row,Sequence,soluble fraction (log2)
1,HMQARSQQTIQTLFKAAAQILDKEGEAGLSTNKVAAAAGFSIGTLYQYFPSKEVLIQAMAAR,-0.0788
2,HMTGIKISVDRLQIGNYVKLPLNWKDHPFLFSSFAIKSQEEIDLIRRLGLKQVIMFPDKSSMPPKPV,-1.33
3,HMVPEMIRDVISKSIRDMGVLPDHMQINERIALIQSLKKQQILGIKGAVAETARQLGISVPTVYRYMKKG,-0.362
4,HMDSGLEQAKTAALENAELETSQVTFIKAELDYDDGKKVYEIEFVTSAMKYEYQVKADDFSILEMSKETIE,-0.39
5,HMNESADMPDVVNMSLEAAKSQLEGMGLKVKVENVEDDSVEENHVIKTSPVSGEKVKLGTTVTLTVSKGR,-0.0231
6,HMNVNALIGQEGIVIKEINSGSNKIGQVKISGDTWSAVTTNDFTNAIPVGSNVKILKIDGVNLIVEPVY,-0.0724
7,HMIDFTHEDIERLWNAIVHYVPERQKSDMAIDFIKSLEDIGVEHDEIKASAEYDPKLEEAINTVY,-0.352
8,HMPTLSKVGSQGEEVRQIQTKLKNWGYLNDRVDGIYGPKTRDAVIWFQKKNGLVADGIAGPATLKAMGIFT,0.0925
9,HMTSLGLEGLVNTTAIATSDLRPSGWALAGERKIFVVSEGEFIDNGDKIRILTVDGNRIVVRKETNK,-0.051
10,HMNDADAHASVDAALKHLEALAETTPEVRAALELVRRGPDGRVTVDSFARVAEALREISIAVGAS,0.107
11,HMQETPAMLAMKELPTEDEQRIYMMLQEDYDSVLLVKTIRNAFSQNPQLTRQQLLPIILTWLMT,-1.14
12,HMPSGRIRWFDAKKGYGFIAGDDGKDVFLPQTALPQGVRNPRKGAKVEYSVIEGNRGQVAMGVTMV,-0.0368
13,HMTPNRDDEHLQSLRDYYASNRRIPSLQRIAALLGFSSRSAAVKLMGRLADEGFVERTVDDDAWIPGSRFF,-0.808
14,HMEFEIGQEDSKKSVKQFLYNTLRLSHGQVTALKRQERGILLNGERVFVTALLQEGDRLSLLLE,-0.342
15,HMPSKTFYNLSQEKQQKIIDASEKEFSNNLYQDVSLNQIIKNSNISRGSFYMYFTDKEDLYFYLLNEY,0.275
16,HMRSLVDRSVQAVTDHIRENALRVGDSLPGEAYFATSLGVSRAVMREAFGALAALRVIDVGNGRKPRVGAI,-0.58
17,HMNTELSPKVWDVVQEFILYRKEIKAPMTEHAVKLLIGQLQKLSSDPDEQIEILRQSIVNGWKGIFSLK,-0.183
18,HMEEDPVISQAQRQALFKLAHDHFGQEEGNKVILRLIGEHGLRSTTNMTASVYKTVTDALIQVIESMVEG,-0.0318
19,HMDKAGWLPARVRLADYPALKQLAWQVQGVDELTPREALGIYERNWRHLDEAALLPRERNLIDALRLAFG,-0.207
20,HMAKLGITQREQEVLQLLVTGKTYKEIAAELFISLPTVKTHVSNIYSKAKVRNRLELSNLINYI,-2.73
21,HMALHDTLSYEEYLDLGLNGKADSAEKRELVAHALHLGRPNAKTLYKRLNMLQLNRKDVAALLEQ,0.0249
22,HMNPFTHEEINLMSIYNAAGTREGLIAALTEMWGYLDAEETELRELADSALAKLRGITDAEYAALELE,-0.633
23,HMGAQRDFELQLIDVIRQNPGLTYKAYGEKLSVSQATVKRLVAKLKETGSIRREGSQRKGTWIITDD,-0.867
24,HMSEEIKVPNFVGSTFEKAQALAQETGLEIARGEDVYSPDQEEGKITSQNPTADSVVSPGKLITVYVSKG,0.00159
25,HMGLNPSILVKLGNANIKTIDNLADLASDELKEILEDISITSKEADEIIMRARSSWFEEDDKKEDNI,0.0789
